According to patent publication US20240279335A1, “CD28 SHEDDING BLOCKING AGENTS” (BIOND BIOLOGICS LTD., priority 2021, published 2024):
Changes are numbered by the printed parent chain. “And” between values parts separate entries of the source, which are not always exact repeats. Equal values may be shown once. Read-outs that look alike come from different tables or passages of the source.

B1: VHH 2A1 (VHH)
VHH: EVQLVESGGGLVQAGESLRLSCAASGSIASINAMGWYRQAPGSQRELVAAISGGGDTYYADSVKGRFTISRDNAKTTVYLQMNSLRPEDTAVYYCVVDLYGSDYWDWGQGTQVTVSS
notes: Monomeric llama VHH; also called VHH #2A01; monomeric 2A1
B2: VHH 6B10: affinity matured variant of VHH 2A1, SEQ ID NO: 28 (protein)
VHH: B1 VHH with L99T, Y100H, G101R, S102G, D103V, D106Y
B3: VHH 11G11 (VHH)
VHH: EVQLVESGGGLVQAGESLRLSCAASGSIASINTMAWYRQAPGSQRELVAAINSISRTYYADSVKGRFTISRDNAKTTVYLQMNSLRPEDTAVYYCVVDVTKEDYWYWGQGTQVTVSS
B4: VHH 11E11 (VHH)
VHH: EVQLVESGGGLVQAGESLRLSCAASGSIASINSMAWYRQAPGSQRELVAAISNAREVYYADSVKGRFTISRDNAKTTVYLQMNSLRPEDTAVYYCVVDVYFQEYWYWGQGTQVTVSS
B5: VHH 9B3 (VHH)
VHH: B4 VHH with N32R, S33T, N53S, A54G, V99M, F101W, E103D, Y106W
notes: also called 9B03
B6: VHH 5A3 (VHH)
VHH: B1 VHH with A33S, S52N, G53E, G54K, G55L, D56L, T57I
notes: also called 5A03
B7: VHH 9A7 (VHH)
VHH: EVQLVESGGGLVQAGESLRLSCAASGSIASINSMGWYRQAPGSQRELVAAISDRSEKYYADSVKGRFTISRDNAKTTVYLQMNSLRPEDTAVYYCVVDHHHSDWWTWGQGTQVTVSS
notes: also called 9A07
B8: VHH 10E1 (VHH)
VHH: B3 VHH with N32K, S53Y, S55K, R56E, T57I
notes: also called 10E01
B9: VHH 12A09: affinity matured variant of VHH 2A1, SEQ ID NO: 32 (protein)
VHH: B3 VHH with N32K, A49T, N52A, I54D, S55N, T57K
B10: 2A1-Hinge: VHH 2A1 with human IgG1 hinge region downstream, dimeric, SEQ ID NO: 114 (protein)
chain: EVQLVESGGGLVQAGESLRLSCAASGSIASINAMGWYRQAPGSQRELVAAISGGGDTYYADSVKGRFTISRDNAKTTVYLQMNSLRPEDTAVYYCVVDLYGSDYWDWGQGTQVTVSSDKTHTCPPCPAPEL
modifications: dimeric

Assays:
[1] = target: human CD28 on the cell surface (membranal CD28) (human) (UniProt P10747); assay: flow cytometry on human CD3 cells, 300 nM, anti-human IgG VHH Alexa Fluor 647
[2] = target: human CD28 on the cell surface (membranal CD28) (human) (UniProt P10747); assay: as above; remark: listed apart in the source
[3] = target: T1, soluble CD28 (sCD28) from SEB stimulated PBMC (Homo sapiens, UniProt P10747); format: cell-based
T1 construct: PBMCs were isolated from fresh blood samples of healthy donors; endogenous in cells; host or cells: human PBMCs from healthy donors, SEB-stimulated

[4] = target: T2, human CD28-Fc chimera (R&D, Cat. No. 342-CD) (human, UniProt P10747 19-152); assay: ELISA: serial dilution of the agent on recombinant human CD28-Fc fusion protein, OD read
T2 construct: Bought reagent; also called recombinant human CD28-Fc fusion protein; recombinant CD28 fused to an Fc backbone; Fc part of the bought chimera not given

[5] = test system: isolated T cells mixed with mature dendritic cells; assay: Allogeneic mixed lymphocyte reaction (MLR), cytokine secretion; format: cell-based, human; settings: monomeric affinity matured VHHs; especially at high concentrations; FIG. 2
Procedure: (§1) Cytokines ELISA—Commercial ELISA kits were used for quantitation of the amount of human interferon-gamma (Biolegend, Cat. No. 430103), human interleukin 2 (Biolegend, Cat. No. 431802) and human CD28 (R&D system, Cat. No. DY342). Cell Proliferation and viability (MTT assay) was conducted to assure validity of results and performed according to manufacturer instructions (Roche, Cat. No. 11465007001).
Dendritic cell differentiation—Monocytes were cultured at a density of 1×10^6/mL in RPMI medium with growth factors that was refreshed at day 3 and at day 6. […] When needed the iDCs were further differentiated into mature dendritic cells by addition of 100 ng/mL LPS (Sigma, Cat. No. L4391) and 20 ng/mL interferon-gamma (R&D systems, Cat. No. 285-IF) for 48 hrs. The generated cell populations were tested for the indicated phenotypes by FACS analysis of relevant markers and by analysis of secretion of characteristic cytokines.
Allogeneic Mixed Lymphocyte Reaction—0.1×10^6 T cells were mixed with […] dendritic cells from different donor for 24-96 hours at 37° C. with/without the indicated concentration of treatments. Assays were conducted in complete RPMI-1640 media supplemented with 10% FCS and pen/strep mixture. […]

[6] = target: T2, human CD28-Fc chimera (R&D, Cat. No. …); assay: SPR (Biacore), CD28-Fc immobilized on CM5 chip, VHH as analyte, multi-cycle kinetics, 1:1 model
CD28-Fc = target: T3, CD28-Fc (Homo sapiens, UniProt P10747); assay: Biacore multi-cycle kinetics on immobilized CD28-Fc; format: binding; settings: Table 3, monomeric VHH clones; for ka: affinity constants to CD28-Fc
T3 construct: Fc
Procedure: Biacore—Affinity clones derived from VHH #2A01 affinity maturation libraries was determined using CD28-Fc immobilized on a CM5 Series S sensor chip. Multi-cycle kinetics measurements were done using 5 step dilutions of the analytes (VHH clones) from 200 nM down to 12.5 nM. Kinetic parameters and affinity values were calculated using the 1:1 binding model in Biacore T 200 E valuation software 3.1 by introducing a double (blank channel and blank sample) subtraction.

isolated CD3 T cells = assay: T cell stimulation with HEK/CD80/scOKT3 artificial antigen presenting cells (aAPC-CD80), IL-2 secretion; format: cell-based, human; settings: various concentrations, FIG. 13A-13F, 17A-17F
Procedure: as §1
T cells stimulation with HEK/CD80/scOKT3 artificial antigen presenting cells (aAPC-CD80)—1×10^5 isolated CD3 T cells (from healthy donors) were stimulated with 0.5×10^4 mitomycin treated aAPC-CD80 (HEK293 cells stably transfected with CD80 and scOKT3-CD14 chimera plasmids) for 24-72 hr at 37° C. Treatments of VHH targeting CD28 or controls were added at the indicated concentration in soluble form. When stated, VHH #3C04 (raised against human HER2) was used as an “irrelevant control” and VHH #12B09 was used as a “positive control” for a nanobody with CD28 antagonist effect. Assays were conducted in complete RPMI-1640 media supplemented with 10% FCS and pen/strep mixture.

Row | Molecule | Kd [6] | koff [6] | kon [6] | kd (CD28-Fc; CD28-Fc) | ka (CD28-Fc) | further results
1 | Isotype hIgG4 (antibody) |  |  |  |  |  | MFI [1]: 71.9 MFI; MFI [2]: 116 MFI
2 | CC#CCOc1ccc(S(=O)(=O)N2CCSC(C)(C)[C@@H]2C(=O)NO)cc1 [TMI, reference compound] |  |  |  |  |  | sCD28 levels / inhibition of sCD28 production [3]: greatly reduced sCD28 levels
3 | B1 |  |  |  |  |  | EC50 (read off the curve) [4]: ~40 nM
4 | B2 |  |  |  |  |  | blocking of CD28 shedding compared to the parental VHH [3]: superior to the parental VHH; proinflammatory cytokine (IFN gamma) secretion in MLR, antagonistic effect [5]: robust antagonistic effect
5 | B3 | 0.12 nM and 0.121 nM | 5.77e-06 s⁻¹ | 47800 M⁻¹ s⁻¹ | 5.77e-06 s⁻¹ | 47800 M⁻¹ s⁻¹ | 
6 | B4 | 0.352 nM | 1.64e-05 s⁻¹ | 46600 M⁻¹ s⁻¹ | 1.64e-05 s⁻¹ | 46600 M⁻¹ s⁻¹ | 
7 | B5 | 0.000642 nM | 7.17e-08 s⁻¹ | 112000 M⁻¹ s⁻¹ | 7.17e-08 s⁻¹ | 112000 M⁻¹ s⁻¹ | 
8 | B6 | 1.12 nM | 3.78e-05 s⁻¹ | 33800 M⁻¹ s⁻¹ | 3.78e-05 s⁻¹ | 33800 M⁻¹ s⁻¹ | blocking of CD28 shedding compared to the parental VHH [3]: superior to the parental VHH; proinflammatory cytokine (IFN gamma) secretion in MLR, antagonistic effect [5]: robust antagonistic effect
9 | B7 | 0.19 nM | 9.78e-06 s⁻¹ | 51500 M⁻¹ s⁻¹ | 9.78e-06 s⁻¹ | 51500 M⁻¹ s⁻¹ | 
10 | B8 | 0.0639 nM | 2.84e-06 s⁻¹ | 44400 M⁻¹ s⁻¹ | 2.84e-06 s⁻¹ | 44400 M⁻¹ s⁻¹ | 
11 | B9 |  |  |  | 3.43e-07 s⁻¹ | 83400 M⁻¹ s⁻¹ | Kd (CD28-Fc; CD28-Fc): 0.0041 nM
12 | B10 |  |  |  |  |  | sCD28 levels / inhibition of sCD28 production [3]: did inhibit sCD28 production, but only at levels that were comparable to the 2A1 monomer; IL-2 secretion, antagonistic effect (isolated CD3 T cells): no effect on IL-2 secretion
